Nine molecules from publication PMC3470569, “Probing Subunit-Subunit Interactions in the Yeast Vacuolar ATPase by Peptide Arrays” (PLoS ONE, 2012) can be followed below.

Ends that are not written are not given here. cellulose = not defined here

Assay in all cases: peptide or protein array; 20-mer peptides linked at their C-terminal end to cellulose and spotted in duplicate on glass slides; blocked in 2% nonfat milk; purified probe at 4 µM in TBS for 1 hour at 4°C; bound probe detected through MBP or FLAG with HRP-coupled antibody (chemiluminescence); hits by ANOVA (p 0.05, Bonferroni) and HCL in MeV, score of at least 1 in 75% of the spots
What all share (conditions): both partners purified

Assay [1] deals with T1, subunit G (Vma10p) with FLAG tag (S. cerevisiae, UniProt P48836 1-114).
T1 construct: V-ATPase subunit G (Vma10p), S. cerevisiae, 114 amino acids; also called G-FLAG; FLAG-G; source: E. coli, from the bicistronic MBP-FLAG-G / E construct, purified (amylose, PreScission cleavage of MBP, DEAE, amylose); not shown: MBP, N-terminal, cleaved
T1 sequence (looked up): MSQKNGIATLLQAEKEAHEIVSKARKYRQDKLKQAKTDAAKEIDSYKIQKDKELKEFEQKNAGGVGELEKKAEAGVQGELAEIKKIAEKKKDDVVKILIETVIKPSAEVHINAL

Assay [2] concerns the target T2, full-length subunit H (Vma13p), N-terminal MBP fusion (S. cerevisiae, UniProt P41807 1-478).
T2 construct: V-ATPase subunit H (Vma13p), S. cerevisiae, 478 amino acids; Construct provided by the laboratory of Dr. Patricia Kane; also called MBP-H; source: E. coli, purified (amylose column; ultrafiltration or size exclusion chromatography); not shown: MBP, N-terminal, kept
T2 sequence (looked up): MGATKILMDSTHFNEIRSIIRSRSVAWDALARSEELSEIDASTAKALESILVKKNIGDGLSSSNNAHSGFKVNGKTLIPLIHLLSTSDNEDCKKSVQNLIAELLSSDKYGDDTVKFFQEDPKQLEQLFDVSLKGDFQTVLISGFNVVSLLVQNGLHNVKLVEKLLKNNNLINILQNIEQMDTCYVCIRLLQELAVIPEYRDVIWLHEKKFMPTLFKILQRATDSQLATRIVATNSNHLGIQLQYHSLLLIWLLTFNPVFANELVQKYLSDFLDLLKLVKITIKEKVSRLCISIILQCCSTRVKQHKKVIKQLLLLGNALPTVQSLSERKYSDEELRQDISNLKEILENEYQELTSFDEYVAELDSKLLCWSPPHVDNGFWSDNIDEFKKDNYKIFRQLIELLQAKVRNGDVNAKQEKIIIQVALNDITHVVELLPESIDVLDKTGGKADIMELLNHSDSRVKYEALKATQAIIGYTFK

Assay [3] deals with T3, EG heterodimer (untagged subunit E with FLAG-tagged subunit G) (S. cerevisiae, UniProt P22203 1-233; P48836 1-114).
T3 construct: V-ATPase subunit E (Vma4p), S. cerevisiae, tagless; V-ATPase subunit G (Vma10p), S. cerevisiae; also called EG-FLAG; source: E. coli, co-expressed from one bicistronic plasmid, purified (amylose, PreScission cleavage of MBP, DEAE, amylose); not shown: MBP, N-terminal, cleaved; FLAG, N-terminal, kept
T3 sequence (looked up) 1: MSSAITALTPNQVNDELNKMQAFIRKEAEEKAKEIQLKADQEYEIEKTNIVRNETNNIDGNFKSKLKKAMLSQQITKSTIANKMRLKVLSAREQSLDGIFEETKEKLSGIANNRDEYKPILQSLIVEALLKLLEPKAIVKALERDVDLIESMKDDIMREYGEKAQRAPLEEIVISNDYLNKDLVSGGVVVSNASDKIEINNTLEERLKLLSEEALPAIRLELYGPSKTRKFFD
T3 sequence (looked up) 2: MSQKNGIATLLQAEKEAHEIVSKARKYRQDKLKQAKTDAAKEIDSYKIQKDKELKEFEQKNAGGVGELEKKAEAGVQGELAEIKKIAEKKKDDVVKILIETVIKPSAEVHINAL

Assay [4] deals with T4, C-terminal domain of subunit H (HCT), N-terminal MBP fusion (S. cerevisiae, UniProt P41807 353-478).
T4 construct: V-ATPase subunit H (Vma13p), S. cerevisiae, C-terminal globular domain 353-478 (126 amino acids); Construct provided by the laboratory of Dr. Patricia Kane; also called MBP-HCT; source: E. coli, purified (amylose column; ultrafiltration or size exclusion chromatography); not shown: MBP, N-terminal, kept
T4 sequence (looked up): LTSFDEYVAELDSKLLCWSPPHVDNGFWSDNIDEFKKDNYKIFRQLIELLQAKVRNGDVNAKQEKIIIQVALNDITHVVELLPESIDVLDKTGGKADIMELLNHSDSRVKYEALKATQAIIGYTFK

The target of assay [5] is T5, full-length subunit C, N-terminal MBP fusion (S. cerevisiae, UniProt P31412 1-392).
T5 construct: V-ATPase subunit C, S. cerevisiae, 392 amino acids; also called MBP-C; source: E. coli, purified (amylose column); not shown: MBP, N-terminal, kept
T5 sequence (looked up): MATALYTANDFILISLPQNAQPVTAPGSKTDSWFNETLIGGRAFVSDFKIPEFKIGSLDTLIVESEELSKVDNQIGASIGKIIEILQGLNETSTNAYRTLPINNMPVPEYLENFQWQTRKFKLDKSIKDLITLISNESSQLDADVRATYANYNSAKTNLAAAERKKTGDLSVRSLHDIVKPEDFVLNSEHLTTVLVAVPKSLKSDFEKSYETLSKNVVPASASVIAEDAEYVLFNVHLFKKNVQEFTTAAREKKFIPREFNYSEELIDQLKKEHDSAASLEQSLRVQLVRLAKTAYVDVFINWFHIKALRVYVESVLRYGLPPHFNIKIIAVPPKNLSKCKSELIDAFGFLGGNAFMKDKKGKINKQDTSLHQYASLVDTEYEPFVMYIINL

Assay [6] deals with maltose binding protein (MBP) only (UniProt P0AEX9 27-396 = MBP).
The target in assay [7] is T6, subunit E (Vma4p), N-terminal MBP fusion (S. cerevisiae, UniProt P22203 1-233).
T6 construct: V-ATPase subunit E (Vma4p), S. cerevisiae, 233 amino acids; also called MBP-E; source: E. coli, purified (amylose column); not shown: MBP, N-terminal, kept
T6 sequence (looked up): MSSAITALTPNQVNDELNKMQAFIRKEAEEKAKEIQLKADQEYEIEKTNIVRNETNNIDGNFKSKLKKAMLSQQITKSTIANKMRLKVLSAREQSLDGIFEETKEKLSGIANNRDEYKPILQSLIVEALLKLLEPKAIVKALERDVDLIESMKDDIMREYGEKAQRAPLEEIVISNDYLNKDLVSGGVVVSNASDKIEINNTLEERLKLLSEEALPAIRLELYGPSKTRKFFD

The target of assay [8] is T2, full-length subunit H (Vma13p), …. The source holds these as a separate data set.

B1: F(91-110) (peptide, UniProt P39111 91-110, looked up)
peptide: ILEIPSKDHPYDPEKDSVLK-cellulose
modifications: reading uncertain
notes: V-ATPase subunit F, S. cerevisiae, residues 91-110; source: synthetic peptide, spotted on glass slide array (Intavis)
In the case of B1, the binding result in assay [1], in assay [2] and in assay [3] was “binds” each time.

B2: A(205-224) (peptide, UniProt P17255 205-224, looked up)
peptide: GKKSDFTLYHTWPVRVPRPV-cellulose
modifications: reading uncertain
notes: source: synthetic peptide, spotted on glass slide array (Intavis)
Regarding B2, the binding result in assay [4] and in assay [5] was “binds” in each case.

B3: C(181-200) (peptide, UniProt P31412 181-200, looked up)
peptide: PEDFVLNSEHLTTVLVAVPK-cellulose
modifications: reading uncertain
notes: as for B2
Turning to B3, the binding result in assay [5] is on record as “binds”.

B4: D(111-130) (peptide)
peptide: SYIDPEINDFRLTGLGRGGQ-cellulose
modifications: reading uncertain
notes: The promiscuous, 'sticky' peptide that was detected by most probes including MBP alone; source: synthetic peptide, spotted on glass slide array (Intavis)
B4: in assay [6], the binding result is given as “binds”.

B5: a(281-300) (peptide, UniProt P32563 281-300, looked up)
peptide: LSDLYTVLKTTSTTLESELY-cellulose
modifications: reading uncertain
notes: as for B2
Turning to B5, the binding result in assay [7] and in assay [3] was “binds” each time.

B6: C(11-30) (peptide, UniProt P31412 11-30, looked up)
peptide: FILISLPQNAQPVTAPGSKT-cellulose
modifications: reading uncertain
notes: V-ATPase subunit C, S. cerevisiae, residues 11-30; source: synthetic peptide, spotted on glass slide array (Intavis)
In the case of B6, the binding result in assay [4] and in assay [5] was “binds” each time.

B7: a(451-470) (peptide, UniProt P32563 451-470, looked up)
peptide: RGEIFDMAFTGRYIILLMGV-cellulose
modifications: reading uncertain
notes: as for B2
As to B7, the binding result in assay [5] is given as “binds”.

B8: d(151-170) (peptide, UniProt P32366 151-170, looked up)
peptide: TVLVDTPLAPYFKNCFDTAE-cellulose
modifications: reading uncertain
notes: as for B2
On to B8, for which the binding result in assay [8] and in assay [7] was “binds” in each case.

B9: B(61-80) (peptide, UniProt P16140 61-80, looked up)
peptide: TVRQGQVLEIRGDRAIVQVF-cellulose
modifications: reading uncertain
notes: V-ATPase subunit B, S. cerevisiae, residues 61-80; source: synthetic peptide, spotted on glass slide array (Intavis)
B9: in assay [5], the binding result is given as “binds”.
